Assay results reported in publication PMC10923667, “Cloning and expression heterologous alanine dehydrogenase genes: Investigation of reductive amination potential of L-alanine dehydrogenases for green synthesis of alanine derivatives” (Heliyon, 2024).

Experiments:
CC(=O)C(=O)O = tested on: T1, CC(=O)C(=O)O; assay: purified protein; type: biochemical, Candidatus Bathyarchaeota archaeon; details: reductive amination, 0.5 mM NADH, 0.5 M NH4Cl, pH 10.5, 25 °C
T1 construct: full-length, codon-optimised, pET-28a(+) NdeI/XhoI, N- and C-terminal 6xHis tags, E. coli BL21 (DE3), Ni-NTA purified

CCCC(=O)C(=O)O = tested on: T2, CCCC(=O)C(=O)O; assay: purified protein; type: biochemical, Candidatus Bathyarchaeota archaeon; details: reductive amination, 0.5 mM NADH, 0.5 M NH4Cl, pH 10.5, 25 °C
T2 construct: full-length, codon-optimised, pET-28a(+) NdeI/XhoI, N- and C-terminal 6xHis tags, E. coli BL21 (DE3), Ni-NTA purified

CCC(=O)C(=O)O = tested on: T3, CCC(=O)C(=O)O; assay: purified protein; type: biochemical, Candidatus Bathyarchaeota archaeon; details: reductive amination, 0.5 mM NADH, 0.5 M NH4Cl, pH 10.5, 25 °C
T3 construct: full-length, codon-optimised, pET-28a(+) NdeI/XhoI, N- and C-terminal 6xHis tags, E. coli BL21 (DE3), Ni-NTA purified

AfAlaDH = biological target: T4, AfAlaDH (Archaeoglobus fulgidus, UniProt O28608); assay: NADH consumption at […] nm, Michaelis-Menten fit; type: biochemical; details: reductive amination; 0.5 mM NADH, 0.5 M NH4Cl, pH 9.5, 25 °C; read-out: Pyruvate / KM
T4 construct: gene ala; full-length, codon-optimised, pET-28a(+) NdeI/XhoI, N- and C-terminal 6xHis tags, E. coli BL21 (DE3), Ni-NTA purified
T4 sequence (O28608 1-322): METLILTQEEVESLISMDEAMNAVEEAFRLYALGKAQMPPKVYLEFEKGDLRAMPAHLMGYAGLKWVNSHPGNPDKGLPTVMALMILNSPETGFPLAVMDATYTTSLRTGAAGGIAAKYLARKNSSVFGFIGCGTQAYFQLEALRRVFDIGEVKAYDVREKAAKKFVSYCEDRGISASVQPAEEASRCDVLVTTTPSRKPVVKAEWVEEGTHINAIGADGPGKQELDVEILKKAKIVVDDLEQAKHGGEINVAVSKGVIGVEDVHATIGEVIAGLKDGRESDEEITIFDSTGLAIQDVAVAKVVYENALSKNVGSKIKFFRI

purified protein [1] = substrate: CCCC(=O)C(=O)O; assay: purified protein; type: biochemical, Archaeoglobus fulgidus; details: reductive amination, 0.5 mM NADH, 0.5 M NH4Cl, pH 9.5, 25 °C
purified protein [2] = substrate: CCC(=O)C(=O)O; assay: purified protein; type: biochemical, Archaeoglobus fulgidus; details: reductive amination, 0.5 mM NADH, 0.5 M NH4Cl, pH 9.5, 25 °C
purified protein [3] = substrate: CC(=O)C(=O)O; assay: purified protein; type: biochemical, Ammoniphilus sp. CFH 90114; details: reductive amination, 0.5 mM NADH, 0.5 M NH4Cl, pH 10.5, 25 °C
purified protein [4] = substrate: CCCC(=O)C(=O)O; assay: purified protein; type: biochemical, Ammoniphilus sp. CFH 90114; details: reductive amination, 0.5 mM NADH, 0.5 M NH4Cl, pH 10.5, 25 °C
purified protein [5] = substrate: CCC(=O)C(=O)O; assay: purified protein; type: biochemical, Ammoniphilus sp. CFH 90114; details: reductive amination, 0.5 mM NADH, 0.5 M NH4Cl, pH 10.5, 25 °C
purified protein [6] = substrate: CC(=O)C(=O)O; assay: purified protein; type: biochemical, Thermus thermophilus; details: reductive amination, 0.5 mM NADH, 0.5 M NH4Cl, pH 8.5, 25 °C
purified protein [7] = substrate: CCCC(=O)C(=O)O; assay: purified protein; type: biochemical, Thermus thermophilus; details: reductive amination, 0.5 mM NADH, 0.5 M NH4Cl, pH 8.5, 25 °C
purified protein [8] = substrate: CCC(=O)C(=O)O; assay: purified protein; type: biochemical, Thermus thermophilus; details: reductive amination, 0.5 mM NADH, 0.5 M NH4Cl, pH 8.5, 25 °C
purified protein [9] = substrate: CCCCC(=O)C(=O)O; assay: purified protein; type: biochemical, Thermus thermophilus; details: reductive amination, 0.5 mM NADH, 0.5 M NH4Cl, pH 8.5, 25 °C
purified protein [10] = substrate: CC(=O)C(=O)O; assay: purified protein; type: biochemical, Melghiribacillus thermohalophilus; details: reductive amination, 0.5 mM NADH, 0.5 M NH4Cl, pH 9.5, 25 °C
purified protein [11] = substrate: CCCC(=O)C(=O)O; assay: purified protein; type: biochemical, Melghiribacillus thermohalophilus; details: reductive amination, 0.5 mM NADH, 0.5 M NH4Cl, pH 9.5, 25 °C
purified protein [12] = substrate: CCC(=O)C(=O)O; assay: purified protein; type: biochemical, Melghiribacillus thermohalophilus; details: reductive amination, 0.5 mM NADH, 0.5 M NH4Cl, pH 9.5, 25 °C

Q: For “CbAlaDH (Candidatus Bathyarchaeota archaeon)”, which Km (CC(=O)C(=O)O) is on record?
A: 400 ± 0 µM

Q: What about the kcat (CC(=O)C(=O)O) of the same molecule?
A: 0.5 ± 0.1 s⁻¹

Q: And the kcat/Km (CC(=O)C(=O)O)?
A: 1300 ± 100 M⁻¹ s⁻¹

Q: And the Km (CCCC(=O)C(=O)O)?
A: 800 ± 0 µM

Q: What about the kcat (CCCC(=O)C(=O)O) of the same molecule?
A: 0.17 ± 0.1 s⁻¹

Q: And the kcat/Km (CCCC(=O)C(=O)O)?
A: 210 ± 100 M⁻¹ s⁻¹

Q: What about the Km (CCC(=O)C(=O)O) of the same molecule?
A: 2200 ± 1000 µM

Q: And the kcat (CCC(=O)C(=O)O)?
A: 0.7 ± 0.2 s⁻¹

Q: And the kcat/Km (CCC(=O)C(=O)O)?
A: 300 ± 200 M⁻¹ s⁻¹

Q: Which Km (AfAlaDH) does the source give for `CC(=O)C(=O)O` [pyruvate] here?
A: 200 ± 100 µM

B1: AfAlaDH (Archaeoglobus fulgidus DSM 4304) (protein)
chain: METLILTQEEVESLISMDEAMNAVEEAFRLYALGKAQMPPKVYLEFEKGDLRAMPAHLMGYAGLKWVNSHPGNPDKGLPTVMALMILNSPETGFPLAVMDATYTTSLRTGAAGGIAAKYLARKNSSVFGFIGCGTQAYFQLEALRRVFDIGEVKAYDVREKAAKKFVSYCEDRGISASVQPAEEASRCDVLVTTTPSRKPVVKAEWVEEGTHINAIGADGPGKQELDVEILKKAKIVVDDLEQAKHGGEINVAVSKGVIGVEDVHATIGEVIAGLKDGRESDEEITIFDSTGLAIQDVAVAKVVYENALSKNVGSKIKFFRI
notes: full-length, codon-optimised, pET-28a(+) NdeI/XhoI, N- and C-terminal 6xHis tags, E. coli BL21 (DE3), Ni-NTA purified
Q: B1 was tested. Which Km (purified protein [1]) did it give?
A: 300 ± 0 µM

Q: What about the kcat (purified protein [1]) of the same molecule?
A: 0.9 ± 0.2 s⁻¹

Q: And the kcat/Km (purified protein [1])?
A: 2700 ± 300 M⁻¹ s⁻¹

Q: What about the Km (purified protein [2]) of the same molecule?
A: 200 ± 0 µM

Q: What about the kcat (purified protein [2]) of the same molecule?
A: 7.5 ± 0.1 s⁻¹

Q: What about the kcat/Km (purified protein [2]) of the same molecule?
A: 34000 ± 100 M⁻¹ s⁻¹

B2: AcfhAlaDH (Ammoniphilus sp. CFH 90114) (protein)
chain: MIIGVPKEIKNNENRVGLTPAGVTAFKNNGHDVWVETNAGMGSGFTDEDYTAAGAKIVDSASVVWSAEMVVKVKEPLPEEYTYFREGLILYTYLHLAPEPELTKALVEKKVIAIAYETIQADNGSLPLLTPMSEVAGRMSIQIGAQFLEKSKGGKGVLLGGVPGVAPGEVVIVGGGIVGTNAAKMALGLGASVTLLDISADRLRQLDDMFQGRLKTLMSNSYNIAEAVKKADLVVGAVLIPGARAPRLVTEEMVKTMQPGSVIVDVAIDQGGSIETIDRITTHDNPTYVKHGVLHYAVANMPGAVARTSTIALTNVTVPYGVQIANKGWKQAALDNKALAKGINVVDGKVTYKAVAEAHGYTPVAVETVLTGQNVGV
notes: as for B1
Q: What does the source list for B2?
A: Km (purified protein [3]): 700 ± 200 µM; kcat (purified protein [3]): 112 ± 6.6 s⁻¹; kcat/Km (purified protein [3]): 148000 ± 13500 M⁻¹ s⁻¹; Km (purified protein [4]): 5200 ± 800 µM; kcat (purified protein [4]): 1 s⁻¹; kcat/Km (purified protein [4]): 200 M⁻¹ s⁻¹; Km (purified protein [5]): 1300 ± 400 µM; kcat (purified protein [5]): 5.4 ± 0.5 s⁻¹; kcat/Km (purified protein [5]): 4000 ± 1400 M⁻¹ s⁻¹

B3: TtAlaDH (Thermus thermophilus HB8) (protein)
chain: MVIGVPKEIKTLENRVALTPGGVESLVRRGHTVLVERGAGEGSGLSDAEYARAGAELVGREEAWGAEMVVKVKEPLPEEYGFLREGLILFTYLHLAADRGLTEAMLRSGVTGIAYETVQLPDGTLPLLVPMSEVAGRMAPQVGAQFLEKPKGGRGVLLGGVPGVAPASVVILGGGTVGTNAAKIALGMGAQVTILDVNHKRLQYLDDVFGGRVITLTATEANIKKSVQHADLLIGAVLVPGAKAPKLVTRDMLSLMKEGAVIVDVAVDQGGCVETIRPTTHAEPTYVVDGVVHYGVANMPGAVPRTSTFALTNQTLPYVLKLAEKGLDALLEDAALLKGLNTHKGRLTHPGVAEAFGLPYTPPEEALRG
notes: as for B1
Q: Which results are given for B3?
A: Km (purified protein [6]): 630 ± 200 µM; kcat (purified protein [6]): 87 ± 5.1 s⁻¹; kcat/Km (purified protein [6]): 138000 ± 15700 M⁻¹ s⁻¹; Km (purified protein [7]): 3300 ± 1100 µM; kcat (purified protein [7]): 1.2 s⁻¹; kcat/Km (purified protein [7]): 400 M⁻¹ s⁻¹; Km (purified protein [8]): 400 ± 100 µM; kcat (purified protein [8]): 1.1 s⁻¹; kcat/Km (purified protein [8]): 3000 ± 700 M⁻¹ s⁻¹; Km (purified protein [9]): 400 µM

B4: MetAlaDH (Melghiribacillus thermohalophilus) (protein)
chain: MKIGVPKEIKNNENRVALTPAGVMTLKKAGHEVFIETGAGLGSGFTDEQYTEAGAQIVTTAKEAWSQEMVMKVKEPLPEEYDYFYEGLILFTYLHLAAEPELTKALIEKKVVGIAYETVQLDNGSLPLLTPMSEVAGRMATQIGAQFLEKPHGGKGILLGGIPGVRRGKVTIIGGGVVGTNAAKIAVGLGADVTIVDLNPDRLRELDDIFGSSINTLMSNSLNIAEAVKESDLVIGAVLIPGAKAPKLVTEDMVKEMKKGSVIVDVAIDQGGIVETSDRITTHDNPTYEKHGVVHYAVANMPGAVPRTSTIGLTNVTVPYAVQLANKGYKQACLDHAALKKGINTLNGYVTYQAVAEAHGLEYENVDLLLK
notes: as for B1
Q: For B4, which Km (purified protein [10]) is on record?
A: 1300 ± 400 µM

Q: What about the kcat (purified protein [10]) of the same molecule?
A: 140 ± 19.7 s⁻¹

Q: What about the kcat/Km (purified protein [10]) of the same molecule?
A: 108000 ± 12000 M⁻¹ s⁻¹

Q: And the Km (purified protein [11])?
A: 1900 ± 0 µM

Q: And the kcat (purified protein [11])?
A: 0.7 s⁻¹

Q: And the kcat/Km (purified protein [11])?
A: 400 M⁻¹ s⁻¹

Q: And the Km (purified protein [12])?
A: 3800 ± 1200 µM

Q: What about the kcat (purified protein [12]) of the same molecule?
A: 3.3 s⁻¹

Q: And the kcat/Km (purified protein [12])?
A: 800 M⁻¹ s⁻¹
